Source: the nanobody polyreactivity screen of Harvey et al. (2022)

assay: yeast display, Sf9 membrane polyspecificity reagent, FACS + sequencing; frameworks hold sequencing errors
Summary of the method: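 Nanobodies came from a synthetic yeast display library in Saccharomyces cerevisiae BJ5465, induced with galactose for 36–48 hours and stained for 1 hour at 4 °C with 10% biotinylated, detergent-solubilized Sf9 membrane reagent. Cells were enriched on streptavidin microbeads and then FACS-sorted, with low and high (top ~1%) gates set on anti-HA fluorescence for expression and streptavidin fluorescence for reagent binding. Each polyreactivity label reflects the gate a clone came from. Genes were amplified by colony PCR, sequenced by MiSeq 2 × 250 and filtered by CDR length.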

Sequence | polyreactivity (PSR sort gate)
QVQLVESGGGLVQAGGSLRLSCAASGRTFAYNAMGWYRQAPGKERELVADITSGGSTYYADSVKGRFTISRDNAKNTVYLQMNSLKPEDTAVYYCAAYPQFWYWDYNYWGQGTQVTVSS | high polyreactivity
QVQLVESGGGLVQAGGSLRLSCAASGRTFAYNAMGWYRQAPGKERELVASITSGGSTNYADSVKGRFTISRDNAKNTVYLQKNSLKPEDTAVYYCNKDGKYHRVLYDYWGLGTQVTVSS | low polyreactivity
QVQLVESGGGLVQAGGSLRLSCAASGRTFAYNAMGWYRQAPGKERELVASITSGGSTNYADSVKGRFTISRDNAKNTVYLQMNSLKPEDTAVFYCNKDGKYHRVLYDYWGQGTQVTVSS | low polyreactivity
QVQLVESGGGLVQAGGSLRLSCAASGRTFAYNTMGWYRQAPGKERELVAAITWSGGGTYYADSVKGRFTISRDNAKNTVYLQMNRLKPEDTAVYFCAVEYASPRARYRYYYWGQGTQVSVSS | low polyreactivity
QVQLVESGGGLVQAGGSLRLSCAASGRTFAYNTMGWYRQAPGKERELVARINSGTSTYYADSVKGRFTISRDNAKNTVYLQMNRLKPEDTAVYYCNAYSWYGYDYWGQGTQVTVSS | high polyreactivity
QVQLVESGGGLVQAGGSLRLSCAASGRTFAYYAMGWYLQAPGKERELVAAISSGGGSTYYADSVKGRFTISRDNAKNTVYLQMNSLKPEDTAVYYCNKGFNYGGWFKKYGYWGQGTQVTVSS | high polyreactivity
QVQLVESGGGLVQAGGSLRLSCAASGRTFCSYAMGWYRQAPGKERELVAAIRYRGGSTYYADSVKGRFTISRDNAKNTVDLQMNSLKPEDTAVYYCATNTWYYYQRMYYWGQGTQVTVSS | high polyreactivity
QVQLVESGGGLVQAGGSLRLSCAASGRTFDANAMGWYRPAPGKERELVAAISSDGSTNYADSVKGRFTISRDNAKNTVYLQMNSLKPEDTAVYYCATDGKPLIRYDYDYWGQGTQVTVSS | high polyreactivity
QVQLVESGGGLVQAGGSLRLSCAASGRTFDFYAMGWYRQAPGKERELVAAISSRGGSTYYADSVKGRFTISRDNAKNTVYLQMNSLKAEDTAVYYCAKDLGYRGRYNYWGQGTQVTVSS | low polyreactivity
QVQLVESGGGLVQAGGSLRLSCAASGRTFDGYAMGWYSQAPGKERELVAALSSRSGRTYYADSVKGRFTISRDNAKNTVYLQMNSLKPEDTAGYYCAAVNKPRSEDYGYWGQGTQVTVSS | high polyreactivity
QVQLVESGGGLVQAGGSLRLSCAASGRTFDGYTLGGYRQAPGKERELVAAISTGGGSTYYADSVKGRFTISRDNAKNTVYVQLNSLKPEDTAVYDCAARGGSYSFRRYNYWGQGTQVTVSS | high polyreactivity
QVQLVESGGGLVQAGGSLRLSCAASGRTFDHYAMGWYRQAPGKERELVAAITSGGSTYYADSVKGRFTISRDNAKNTVYLQMNSLKPEDTAVYYCNKDSSFWGCYIAQVNERDYWGQGTQVTVSS | low polyreactivity
QVQLVESGGGLVQAGGSLRLSCAASGRTFDINDMGWYRQAPGKEREFVAAIDWSGGYTYYADSVKGRFIISRDNAKNTVYLQMNSQKPEDTAVYYCNARRKRSYDYWGQGTQGTVSS | low polyreactivity
QVQLVESGGGLVQAGGSLRLSCAASGRTFDINTMGWYRQAPGKERELVARISGRGGSTYYADSVKGRFTISRDNAKNTVYLLMNSLKPEYTAVYYCNALGRSVLPQPIGDYWGQGTQVTVSS | high polyreactivity
QVQLVESGGGLVQAGGSLRLSCAASGRTFDIYAMGWYRQAPGKERELVAAISSGGSTYYADSVKGRFTISRDNAKNTVYLQMNRLKPEDTAVYYCAVRWYDQVSRRGIGYYWGQGTQVTVSS | low polyreactivity
QVQLVESGGGLVQAGGSLRLSCAASGRTFDKYAMGWYRQAPGKERELVAAISYDAGRTYYADSVKGRFTISRDNAKNTVYLQMNSLKPEDTAVYYCNAVRFRGFGWGQGTQVTVSS | high polyreactivity
QVQLVESGGGLVQAGGSLRLSCAASGRTFDLYAMGWYRQAPGKERELVARITNIDDSTYYADSVKGRFTISRDNAKNTVYLQMNSLKPEDTAVYYCNAASYSRGPARYDYWGQGTQVTVSS | high polyreactivity
QVQLVESGGGLVQAGGSLRLSCAASGRTFDSNAMGWYRQAPGKERELVAAISYSGGSTYYADSVKGRFTISRDNAKNTVYLQMNSLKPEDTAVYYCNAGDVHKKPARDYWGQGTQVTVSS | low polyreactivity
QVQLVESGGGLVQAGGSLRLSCAASGRTFDSYTMGWYRQAPGKERELVAAIRSSGGRTYADSVKGRFTISRDNAKNTVYLQMNSLKPEDTAVYYCAAARSYWAKYYYWGQGTQVTVSS | high polyreactivity
QVQLVESGGGLVQAGGSLRLSCAASGRTFDVYAMGWYRQAPGKEMELVAAITRRGGSTYYADSVKGRFTISRDNAKNTVNLQMNRLKPEDTAVYYCSAAYSRGSGVGRYRLDYWGKGTQVTVSS | high polyreactivity
QVQLVESGGGLVQAGGSLRLSCAASGRTFDVYAMGWYRQAPGKEREFVASITRSGASTYADSVKGRFTISRDNAKNTVYLQMNSLKPEDTAVYYCNAELDLDTGWDGFVAYDYWGQGTQVSVSS | low polyreactivity

Sequence | polyreactivity (PSR sort gate)
QVQLVESGGGLVQAGGSLRLSCAASGRTFDVYAMGWYRQAPGKERELVAAITSGGSTYYADSVKGRFTISRDNAKNTVYLQMNSLKPEDTAVYYCAKASSATRYVQLRQDYDYWGQGTQVTVSS | low polyreactivity
QVQLVESGGGLVQAGGSLRLSCAASGRTFDVYAMGWYRQAPGKERELVAAITSGGSTYYADSVKGRFTISRDNAKNTVYLQMNSLKPEDTAVYYCATDVDKSLYDYWGQGTQVTVSS | low polyreactivity
QVQLVESGGGLVQAGGSLRLSCAASGRTFDVYAMGWYRQAPGKERELVATIRSDGSTTYADSVKGRFTISRDNAKNTVYLQMTSLKPEDTAVYYCAADFRSGFSSSTTPVQSDWGQGTQVTVSS | low polyreactivity
QVQLVESGGGLVQAGGSLRLSCAASGRTFDVYAMGWYRQAPGKERELVATISYRSARTYYADSVKGRFTISRDNAKNTVYLQMNSLKPEDTAVYYCAAYFETWHGFGYWGQGTQVTVSS | high polyreactivity
QVQLVESGGGLVQAGGSLRLSCAASGRTFDWNAMGWYRQAPGKERELVAAITYSGGGTYYADSVKGRFTISRDNAKNTVYLQMNSLKPEDTAVYYCAAGYPGTWSYYYWGQGTQVTVSS | low polyreactivity
QVQLVESGGGLVQAGGSLRLSCAASGRTFDWYAMGWYRQAPGKERELVAVITGRGGSTYYADSVKGRFTISRDNAKNTVYLQMNSLKPEDTAVYYCAVDRLRYRLGFGFKFDYWGQGTQVTVSS | low polyreactivity
QVQLVESGGGLVQAGGSLRLSCAASGRTFDYNAMGWYRQAPGKEREFVAAITKSGGSTNYADSVKGRFTISRDNEKNTVYLQMNSLKPEDTAVYYCNATYVVIHEYDYWGQGTQVTVSS | low polyreactivity
QVQLVESGGGLVQAGGSLRLSCAASGRTFDYYAMGWYRQAPGKERELVAAISSSGGSTYYADSVKARFTISRDNAKNTVYLQMNSLKPEDTEVYYCNAYAYRFNHIHHIYTTVGEYWGQGTQVTVSS | high polyreactivity
QVQLVESGGGLVQAGGSLRLSCAASGRTFDYYAMGWYRQAPGKERELVAAITKDGGSTYYADSVKGRFTISRDNAKNTVYLQMNSLIPEDTAVYYCAADGPPQYYDPIHYDYWGQGTQVTVSS | low polyreactivity
QVQLVESGGGLVQAGGSLRLSCAASGRTFDYYVMGWYRQAPGKERELVAAITSGGSTYYADSVKGRFTISRDNAKNTVYLQMNSMKPEDTAVYYCNNVRGAFYSHLFDYWGQGTQVTVSS | high polyreactivity
QVQLVESGGGLVQAGGSLRLSCAASGRTFEGNAMGWSRQAPGKERELVAAISTSGGRTYYADSVKGRFTISRDNAKKSVYLQMNSLKPEDTAVYYCATSFYVYPTYYILDYWGQGTQVTVSS | low polyreactivity
QVQLVESGGGLVQAGGSLRLSCAASGRTFEGNAMGWYRQAPGKESELVAAITSGGRTNYADSVKGRFTISRDNAKNTVYLQMNCLKPEDPAVYYCAVETRDRSNYFPGQAYDYWGQGTQVTVSS | low polyreactivity
QVQLVESGGGLVQAGGSLRLSCAASGRTFENYAMGWYRQAPGKERELVAAISKSGGSTYYADSVKGRFTISRDNAKNTVYLQMNSLKPEDTAVYYCATRLTSAVGRYLYDFGYWGQGTQVTVSS | high polyreactivity
QVQLVESGGGLVQAGGSLRLSCAASGRTFERNAMGWYRQAPGKEREFVAAITEIGGSTYYADSVKGRFTISRDNAKNTVYLQMNSLKPEDTAVYYCAKDGTYSPYDYWGQGTQVTVSS | low polyreactivity
QVQLVESGGGLVQAGGSLRLSCAASGRTFERNAMGWYRQAPGKERELVAAITWSGVSTYYADSVKGRFTISRDNAKNTVYLQMNSLKPEDTAVYYCAADWDWRFHRMNYWGQGTQVTVSS | low polyreactivity
QVQLVESGGGLVQAGGSLRLSCAASGRTFERNTMRWYRQAPGKERELVAAISYDGGSTYYADSVKGRFTISRDNAKNTVYFQLNSLKPEDRAVYYCNAGGSEIYRSPFDYWGQGTQVTVSS | low polyreactivity
QVQLVESGGGLVQAGGSLRLSCAASGRTFEYYAMGWYRQAPGKERELVAGISWSGGSTYYADSVKGRFTISRDNAKNTVYLQMNSLKPEDTAVYYCNARYLPRSTIYDYWGQGTQVTVSS | high polyreactivity
QVQLVESGGGLVQAGGSLRLSCAASGRTFFDHALGWYRPAPGKERELVAAITSVGSTYYADSVKGRFTISRDNAKNTVYLQMNSLKPEDTAVYYCAAHRHIHYTDARMDYWGQGTQVTVSS | low polyreactivity
QVQLVESGGGLVQAGGSLRLSCAASGRTFFDYTMGWYRQAPGNERELDAAITGGDGSTYYADSVKGRFTISRDNAKNTVYLEMTSLKPEDTAVYYCAAEYTRTYWYAAMDYWGQGTQVTVSS | low polyreactivity
QVQLVESGGGLVQAGGSLRLSCAASGRTFFFNAMGWYRQAPGKERELVARISSSGRTNYADSVKGRFTISRDNAKNTVYLQMNSLKPEDTAVYYCAAGRYGLYKSDRSPEYGYWGQGTQVTVSS | high polyreactivity
